Measured values: doi:10.1101/2023.09.21.558797

Biological target: His-tagged mouse Endophilin A1 SH3 domain (mouse) (UniProt Q62420)
Test: ELISA; His-tagged mouse Endophilin A1 SH3 domain coated on a 96-well plate, overlaid with increasing concentrations of GST-tagged Dyn1-PRR peptides; two experiments of four replicates

His-tagged mouse Endophilin A1 SH3 domain (mouse), sequence (Q62420 290-349): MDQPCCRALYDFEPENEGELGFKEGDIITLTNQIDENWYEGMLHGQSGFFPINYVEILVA

In the case of “GST-Dyn1xB-PRR (full-length proline-rich region of Dynamin 1 splice variant xB, 746-851) (domain or fragment)”, the fold lower affinity than xA (746–864) is reported as 3 fold.
